Target: T1, His-ubiquitin (UniProt P0CG48 1-76)
T1 construct: ubiquitin (monomer); also called recombinant ubiquitin; source: recombinant
Experiment: pull-down; 2 ug Flag-HA-WRNIP1 or Flag-HA-WRNIP1-19R with 2 ug His-ubiquitin; 300 mM KCl, 40 mM Tris-HCl pH 8.0, 100 ug/ml BSA; 30 C for 1 h; captured on anti-HA Sepharose at 4 C; immunoblot against WRNIP1 and ubiquitin
Conditions: both partners purified

B1: Flag-HA-WRNIP1 (purified from Sf9 cells) (natural protein, human, UniProt Q96S55 1-665, looked up)
chain: MEVSGPEDDPFLSQLHQVQCPVCQQMMPAAHINSHLDRCLLLHPAGHAEPAAGSHRAGERAKGPSPPGAKRRRLSESSALKQPATPTAAESSEGEGEEGDDGGETESRESYDAPPTPSGARLIPDFPVARSSSPGRKGSGKRPAAAAAAGSASPRSWDEAEAQEEEEAVGDGDGDGDADADGEDDPGHWDADAAEAATAFGASGGGRPHPRALAAEEIRQMLQGKPLADTMRPDTLQDYFGQSKAVGQDTLLRSLLETNEIPSLILWGPPGCGKTTLAHIIASNSKKHSIRFVTLSATNAKTNDVRDVIKQAQNEKSFFKRKTILFIDEIHRFNKSQQDTFLPHVECGTITLIGATTENPSFQVNAALLSRCRVIVLEKLPVEAMVTILMRAINSLGIHVLDSSRPTDPLSHSSNSSSEPAMFIEDKAVDTLAYLSDGDARAGLNGLQLAVLARLSSRKMFCKKSGQSYSPSRVLITENDVKEGLQRSHILYDRAGEEHYNCISALHKSMRGSDQNASLYWLARMLEGGEDPLYVARRLVRFASEDIGLADPSALTQAVAAYQGCHFIGMPECEVLLAQCVVYFARAPKSIEVYSAYNNVKACLRNHQGPLPPVPLHLRNAPTRLMKDLGYGKGYKYNPMYSEPVDQEYLPEELRGVDFFKQRRC
notes: WRNIP1, human; Purification as in Liang et al., 2016; also called wild-type WRNIP1; source: Sf9, purified
B1: binds.

From paper PMC7351111, “WRNIP1 Is Recruited to DNA Interstrand Crosslinks and Promotes Repair” (Cell Reports, 2020)
